# Results published in the nanobody polyreactivity screen of Harvey et al. (2022).
# Assay: yeast display, Sf9 membrane polyspecificity reagent, FACS + sequencing; frameworks hold sequencing errors
# In short: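 Galactose-induced (36–48 hours) yeast carrying a synthetic nanobody display library were exposed to 10% biotinylated, detergent-solubilized Sf9 membrane reagent at 4 °C for 1 hour. FACS followed streptavidin microbead enrichment, using low and high (top ~1%) gates for expression (anti-HA) and reagent binding (streptavidin). Colony PCR, MiSeq 2 × 250 sequencing and CDR-length filtering followed. Labels for polyreactivity reflect the gate of origin.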
row,Sequence,polyreactivity (PSR sort gate)
1,QVQLVESGGGLVQAGGSLRLSCAASGRTFSVNAMGWYRPAPGKERELVAAISSGGGTNYADSVKGRFTISRDNAKNTVYLQMNSLKPEDTAVYYCAARTFGYPSHRQEMEYWGQGTQVTVSS,low polyreactivity
2,QVQLVESGGGLVKAGGSLRLSCAASGSIFPFYAMGSYRQAPGKERELVATISWSGGRTYYADSVKGRFTISRDNAKNTVYLQMNSLKPEDTAVYYCAAGSYHYPNAYYYWGQGTQVTVSS,high polyreactivity
3,QVQLVESGGGLVQAGGSLRLSCADSGRTFWGYSMGCYRQAPGKERELVAAITWNGGRTYYADSVKGRFTISRDNAKNTVYLQMNSLKPEDTAVYYCAAGYPRFGYDYWGQGTQVTVSS,high polyreactivity
4,QVQLEESGGGLVQAGGSLRLSCAASGSIFDYYAMGWYRKATGKERELVAAISWSGGSTYYADSVKGRFTISRDNAKNTVYLKMIILKPEDTAVYYCAADSSGIGYSSLYFNWGQGSQVTVSS,low polyreactivity
5,QVQLVESGGGLFQAGGSLRLSCAASGRTFWRYAMGWSRQAPGKERELVAAITSGGGSTFYADSVKGRFTISRDYAKNTVDLQMNILKAEVTAVYYCNREYRWGNSLYSRYDYWGQGTQVTVSS,high polyreactivity
6,QVQLVESGGGLVQAGGSLRLICAASGIIFTGYTMGWYRPAPGKERELVAAITWRGGSTYYADSVKGRFTISRDNAKNTVYLQMNSLKPEDTAVYYCAAEGWYSWDDDYWGQGTQVTVSS,low polyreactivity
7,QVQLVESGGGLVQAGGSLRLSCAASGFIFYPYAMGSYRQAPGKERELVAAITSSGGSTYYADSVKGRFTISRDNAKNTVYLQMNSLKPEDTAVYYCAAYTSYYGTIIAFRYYYWGQGTQVTVSS,high polyreactivity
8,QVHLVESGGGLVQAGGSLRLSCASTGIIFLRNAMGWYRQAHGKERELVAAISYRGGSTYYADSVKGRFTISRDNANNTVYLQMNSLKPEDTAVYYCNDLYTSLYDYWGQGTQVTVSS,high polyreactivity
9,QVQLVESGGGLVQAGGSLRLSCAASGITLHYYAMGWYRQAPGKEREFVAAISWTGGSTYYADSVKGRFTISRDTAKNTVYLQMNSLKPEDTAVYYCAAEGGAFRTYYYWGQGTQVTVSS,high polyreactivity
10,QVQLVESGGGLVQAGGSLRLSCAASGSIFSRNAMGWYRPAPGKERELVAAITSSGGRTYYADSVKGRFTISRDNAKNTVYLQMNSLKPEDTAVYYCAARARGGDWGSGDYWGQGTQVTVSS,high polyreactivity
11,QVQLVESGGGLVQAGGSLRLSCAASGSIFSYYAMGWYRQAPGKERELVAAISWTGGSTYYADSVKGRFTISRDNAKNTVYLQMNSLKPEDTAVYYCAADSPRSDRDSYDYWGQGTQVTVSS,high polyreactivity
12,QVQLVESGGGLVHAGGSLRLSCAASGFIFAANAKGWYRQAPGKERELVAAINYRGSSTYYADSVKGRFTISRDNAKNTVYLQMNSLKPYDTAVYYCAAVSSIYSGYGYWGQGTQVTVSS,high polyreactivity
13,QVQLVESGGGLVQAGGSLRLSCAASGLIFYVYAMGWYRQAPGKERELVAAISFRGTSTYADSVKGRFTISRDNAKNTVYFQMNSLKPEDTAVYYCAVTGFDVLWPSLGGELDYWGQGTQVTVSS,low polyreactivity
14,QVQLVESGGGLVQAGGSLRLSCAASGRIFDQYAMGWYRQAPGKERELVAVISSSGTTNYADSVKGRFTISRDNAKNTVYLQMNSLKPEDTAVYYCAARRQSWFVAAHMDYWGQGTQVTVSS,low polyreactivity
15,QVQLVESGGGLVQAGGSLRLSCAASGFILTLYAMGWYRQAPGKERELVASISRRGGSTYYADSVKGRFTISRDNAKNTVYLQMNSLKPEDTAVYYCNAQGYRRGYDYWGQGTQVTVSS,high polyreactivity
16,QVQLVESGGGLVQAGGSLRLSCAASGFIFTGYAMGWYRQAPGKERELVAAISWTGDSTYYADSVKGRFTISRDNAKNTVYLQMNSLKPEDTAVYYCAARSYRKPSSRRFDYWGQGTQVTVSS,low polyreactivity
17,QVQLVESGGGLVQAGGSLRLSCAASGRIFPTYAMGWSRQAPGKERELVAAISRRTTRTYYADSVKGRFTISRDNAKNTVYLQMNSLKPEDTAVYYCAARLYSSVVRYRYGYWGQGTQVTVSS,high polyreactivity
18,QVQLVESGGGLVQAGGSLRLSCAASGSIFYGYAMGWYRQATGKERELVAAITSGGSTYYADSVKGRFTISRDNAKNTVYLQMNSLKPEDTAVYYCAADYPSRYWRIDYEYWGQGTQVTVSS,high polyreactivity
19,QVQLVESGEGLVQAGGSLRLSCAASGSIFSLNAMGWYRQAPGKERELVAAISGRGGSTYYADSVKGRFTISRDNAKNTVYLQMNSLKPEDTAVYYCAARFSRTFLGYYYWGQGTQVTVSS,high polyreactivity
20,QVQLVESGGGLVQAGGSLRLSCAASGSIFQGYAMGWYRQAPGKERELVAAITASGGSTYYADSVKRRFTISRDNAKNTVYLQMNSLKPEDTAVYYCATDSYWRQDLYRYEYWGQGTQVTVSS,high polyreactivity

row,Sequence,polyreactivity (PSR sort gate)
1,QVQLVESGGGLVQAGGSLRLSCAASGFTVGYAMGWYRQAPGKEREFVAAITRGGGTRTSYADSVKGRFTISRDNAKNTVYLQMNSLKPEDTAVSYCAARRWWSPRTQYDYWGQGTQVTVSS,high polyreactivity
2,QFQLVESGGGLVQAGGSLRLSCAASGSTFRGYVMGWYRQAPGKERELVAAITFSSGSTYYADSVKGRFTISRDNAKNTVYLQMNSLKPEDTAVYYCAAVGPYYRDYYYWGQGTQVTVSS,high polyreactivity
3,QVQLVESGVGLVQAGGSLRLSSAASGSIFLSYDMGWYRQAPGKERELVAAITQSGGSTYYADSVKGRFTISRDNAKNTVYLQMNSLKPEDTAVYYCAADYGYFPQETYPTYGYYYWGQGTQVTVSS,low polyreactivity
4,QVNHVESGGGLVQAGGSLRLICAASGSTYNNAMGWYRQAPGKERELVAAIRWSGGSTYYADSVKGRFTISRDNANYTVYLQMNSLNPEDTAVYYCASAYRWSRKRYNDYDYWGQGSQVTVSS,high polyreactivity
5,QVQLGESGGGLVQAGGSLRLSCAASGSTFERYSMGWYRQAPGKERELDAAINWSGGGTYYADSVKGRFTISRDNAKNTVYLQMNSLKPEDTAVYYCAADSGNVVFSLWWYEYYYWGQGTQVTVSS,low polyreactivity
6,QVQLVESGGGLVQAGGSLRLSCAASGFTFEYYAMGWYRQAPGKERELVAAIDTGGSTNYADSVKGRFTISRDNAKNTVYLQMNSLKPEDTAVYYCAADWSWWDGEDYHFEYDYWGQGTQVTVSS,low polyreactivity
7,QVHLVESGVGLVQAGCSLRLSCAASGIIFLTNAMGWYRQAPGKERELVAAITAIGGSTYYADSVKGRFTISRDNAKNTVYLQINSLKPEDTAVYYCAADFSYVYYLYDYWGQGTQVTVSS,low polyreactivity
8,QVHLVESGGGLVQAGGSLRLSCAASGRTFATYALGWYRQAPGKERELVAAISSGGSTYYADSVKGRFTISRDNAKNTVYLQMNSLKPEDTAVYYCAAARKYYGYNYWGQGTQVTVSS,high polyreactivity
9,QVQLVESGGVLVQAGGSLRLSCAASGLTIQTNAMGWYREAPVKERELVAAISRRGSSTYYADSVKGRFTISRDNAKNTVYLQMISLKPEDTAVYYCATGGVLYPYWRGKRYGYWGQGTQVTVSS,high polyreactivity
10,QVQLVESGGGLVQAGGSLRLSCAASGSILGYYAMGWYRQAPGKERELVAAITASGGSTYYADSVKGRFTISRDNAKNTVYLQMNSLKPEDTAVYYCNADGGPGYPRAYDYWGQGTQVTVSS,low polyreactivity
11,QVQLVESGGGLVQAGGSLRLSCAASGTFAGNAIGWYRQAPGKERELVAAINSGGSTNYADSVKGRFTISRDNAKNTVYLQMNSLKPEDTAVYYCAADSVWSPVDYDYWGQGSQVTVSS,low polyreactivity
12,QVQLVESGGGLVQAGGSLRLSCAASGLIFDSYDMGWYRQAPGKERELVAAIRRNGGSTYYADSVKGRFTISRDNAKNTVYLQMNSLKPEDTAVYYCAVDNSGYSGVYWVKMDYWGQGTQVTVSS,low polyreactivity
13,QVQLVESGGGLVQAGGSLRLSCAASGFILLQYVMGWYRQAPGKERELVAAITSGGSTYYADSVKGRFTISRDNAKYTVYLQMNSLKPEDTAVYYCSTDVADNTFYALYGYDYWGQGTQVTVSS,low polyreactivity
14,QVQLVESGGGLVQAGGSLRLSCAASGRIFSAYTMGWYRQAPGNERELVAAIRWSGDSTYYADSVKGRFTISRDNAKNTVYLQKNSLKPEDTAVYYCAARDRWFPRYSSRYYSWGQGTQVSVSS,high polyreactivity
15,QVQLVESGGGLVQAGGSLRLSCDASGLTIYGYAIGSYRQAPGKERELVAAITSGDSTYYADSVKGRFTISRDTAKNTVYFQMNSLKPDDTAVYYCAAVGGYPRYGYWGQGTQVTVSS,high polyreactivity
16,QVQLVQSGGGLVQAGGSLRLSCAASGSTFPTNAMGSYRQAPGKERELVAAISSSGGRTYYADSVKGRFTISRDNAKKTDYLQRNSLKPEDTAVYYCAAVWWRAYAVRMYYWGQGTQVTVSS,high polyreactivity
17,QVQLVESGGCLVQAGGSLRLSCAASGFTFRYYAMGWYRQAPGKERELVAGITSGSRTNYADSVKGRFTISRDNAKNTVYLQMNSLKPEDSAVYYCAARIYNYQSWYDYWGQGTQVTVSS,high polyreactivity
18,QVQLVESGGGLVQAGGSLRLSCAASGITLLYNAMGWSRQAPGKERELVAGITGRGGSTYYADSVKGRFTISRDNAKNTVYLQMNSLKPEDTAVYYCAATTDYRYVGRIVIRDEHWGQGTQVTVSS,low polyreactivity
19,QVQLVESGGGLVQAGGSLRISCAASGRIFQYYSMGWYRQAPGKERELLAAMSSRGGSTTYADSVKGRFTISRDNAKNTVYLQMNRLKPEDTAVYYCASDWYYYPQYRQRYYYWGQGTQVTVSS,high polyreactivity
20,QVQLVESGGGLVQAGGSLRLSCAASGRTFPFYAMGWYRQAPGKERELVAAINSGGITNYADSVKGRFTISRDNAKNTVYLQMNSLKPEDTAVYYCAAKTAFYRERGYWGQGTQVTVSS,low polyreactivity
